Consider one substance from patent US20180134794A1.

The target in assay [1] is human MET (c-Met, HGFR) endogenously expressed on cell lines (human) (UniProt P08581).
Assay [2] shares this target. The source holds these as a separate data set.

Like-named read-outs stand apart in the source and are kept apart here.

Chain of human MET (c-Met, HGFR) endogenously expressed on cell lines (human) (P08581 25-1390): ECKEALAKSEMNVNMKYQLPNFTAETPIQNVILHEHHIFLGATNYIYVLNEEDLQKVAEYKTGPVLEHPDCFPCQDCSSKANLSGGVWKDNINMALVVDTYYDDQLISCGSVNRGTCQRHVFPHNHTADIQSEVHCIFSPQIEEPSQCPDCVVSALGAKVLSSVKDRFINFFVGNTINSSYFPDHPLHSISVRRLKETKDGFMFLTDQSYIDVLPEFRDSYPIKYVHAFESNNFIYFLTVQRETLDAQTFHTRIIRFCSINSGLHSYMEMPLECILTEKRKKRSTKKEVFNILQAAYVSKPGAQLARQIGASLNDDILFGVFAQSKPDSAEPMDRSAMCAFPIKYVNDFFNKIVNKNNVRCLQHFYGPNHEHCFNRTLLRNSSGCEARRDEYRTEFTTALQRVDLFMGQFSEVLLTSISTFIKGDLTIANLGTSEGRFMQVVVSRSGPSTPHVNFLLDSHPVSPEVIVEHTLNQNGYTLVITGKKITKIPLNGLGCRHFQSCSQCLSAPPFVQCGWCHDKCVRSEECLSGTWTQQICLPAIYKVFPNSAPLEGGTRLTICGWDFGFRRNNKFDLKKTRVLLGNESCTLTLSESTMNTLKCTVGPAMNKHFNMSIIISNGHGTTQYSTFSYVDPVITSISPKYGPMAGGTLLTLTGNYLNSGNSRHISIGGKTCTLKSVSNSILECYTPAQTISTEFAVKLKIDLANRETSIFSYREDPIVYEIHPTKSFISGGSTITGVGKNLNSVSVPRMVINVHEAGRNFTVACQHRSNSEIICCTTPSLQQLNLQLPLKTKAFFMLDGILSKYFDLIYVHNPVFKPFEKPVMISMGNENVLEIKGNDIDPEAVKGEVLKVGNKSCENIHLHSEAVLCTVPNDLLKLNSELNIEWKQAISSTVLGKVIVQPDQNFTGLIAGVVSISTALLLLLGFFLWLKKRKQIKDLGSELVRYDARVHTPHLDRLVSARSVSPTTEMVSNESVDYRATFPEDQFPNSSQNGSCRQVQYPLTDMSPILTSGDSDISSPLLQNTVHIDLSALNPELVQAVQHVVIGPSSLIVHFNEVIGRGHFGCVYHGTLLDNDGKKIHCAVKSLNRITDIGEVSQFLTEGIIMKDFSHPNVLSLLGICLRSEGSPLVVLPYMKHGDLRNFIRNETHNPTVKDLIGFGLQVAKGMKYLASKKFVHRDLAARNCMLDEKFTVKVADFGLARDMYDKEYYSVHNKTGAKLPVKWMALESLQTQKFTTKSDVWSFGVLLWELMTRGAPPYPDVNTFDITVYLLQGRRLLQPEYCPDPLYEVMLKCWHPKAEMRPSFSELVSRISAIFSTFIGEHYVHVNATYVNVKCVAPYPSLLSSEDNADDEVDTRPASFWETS

With “monovalent anti-MET antibody (heavy and light chain variable sequences of MetMab)”, the IC50 (read off the curve), inhibition of HGF-induced SRE-luciferase signal in assay [1] is 0.06 nM; in assay [2], 0.4 nM.
